The data set in a line: protein stability index of a GFP-peptide fusion (GPS, HEK-293T) (PSI 1-6); higher = more stable. The note with it: c terminus: a fixed tail appended.

± gives the standard deviation.
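Note: 24-mer peptide tiles fused after GFP, lentivirally expressed, FACS-sorted into six equal bins by GFP/DsRed ratio, decoded by Illumina sequencing, PSI is the read-weighted mean bin number.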

Turning to LLLCGTISLRVYRKVLQAVHRGDG [RTN2], the protein stability index was 2.66 ± 0.37 (treatment: DMSO) and 2.36 ± 0.63 (treatment: MLN4924 1 uM, 8 h).
In the same order, the values of LLLLFGVAGGLVACRVTELQQQPL [LRRC59] are 2.77 ± 0.2 and 3.46 ± 0.55.
Regarding LLPIVPLSWLVWLLLLLLASLLPS [ADAMTS4], the protein stability index by setting is: (treatment: DMSO) 3.04 ± 0.33; (treatment: MLN4924 1 uM, 8 h) 3.17 ± 0.51.
Regarding LLSKYCGYREDNIPQLEDVSNFLK [TPH1], the protein stability index by setting is: (treatment: DMSO) 2.41 ± 0.59; (treatment: MLN4924 1 uM, 8 h) 2.61 ± 0.57.
In the same order, the values of LLVGGLPPGPDRLPSNLVQYYDDE [KLHL14] are 4.17 ± 0.25 and 4.04 ± 0.087.
For LMSSAVPMTPEDPSFWDCFCFTEE [AASDHPPT], in that order: 3.98 ± 0.25 and 3.86 ± 0.23.
In the same order, the values of LNILIQSLDWETFEQYCAWQLFLA [INTS3] are 3.04 ± 0.92 and 2.62 ± 0.12.
Take LPEELRRLSGLSSVGHNWRKRMGT [C22orf15]: the protein stability index by setting is: (treatment: DMSO) 2.99 ± 0.18; (treatment: MLN4924 1 uM, 8 h) 3.07 ± 0.22.
In the same order, the values of LPESGLLSVLQIAQQDLAPDPDAW [FANCE] are 4.06 ± 0.19 and 4.01 ± 0.22.
For LPFVLAAAVSRKKKRRMGTYSLVP [EHMT1], in that order: 2.34 ± 0.26 and 2.27 ± 0.24.
For LPPPSALKKGSKEKQADFLDKQMS [NFE2L1], in that order: 4.89 ± 0.24 and 4.91 ± 0.29.
Turning to LPQEDPSTSQGCAQPQGAPCCSSS [FEM1A], the protein stability index runs as follows: (treatment: DMSO) 5.48 ± 0.12; (treatment: MLN4924 1 uM, 8 h) 5.37 ± 0.19.
As for LQCAMEENCLSASAAQTDPTTGYR [LOXL2], the protein stability index by setting is: (treatment: DMSO) 3.59 ± 0.23; (treatment: MLN4924 1 uM, 8 h) 3.45 ± 0.29.
For LQDGRRKVHYLFPDGKEMAEEYDE [DPCD], in that order: 4.7 ± 0.064 and 4.72 ± 0.37.
For LQQQPLCTSVNTIYDNAVQGLRRH [LRRC59], in that order: 3.66 ± 0.091 and 3.83 ± 0.13.
For LQRWCRAKHMGLEPPPEVWQVLKT [POLD4], in that order: 2.28 ± 0.056 and 2.56 ± 0.14.
On to LQSSKNSYSFQNPSSFDPSMLLQR [RNF180], for which the protein stability index (treatment: DMSO) is 2.9 ± 0.27 and the protein stability index (treatment: MLN4924 1 uM, 8 h) came out at 3.3 ± 0.17.
With LQTVTREKEELLQLSIERGKVLQN [CCDC89], the protein stability index stood at 4.13 ± 0.25 (treatment: DMSO) and 4.42 ± 0.26 (treatment: MLN4924 1 uM, 8 h).
As for LRCKLAAFYRLADLFGWSQLIYNH [ADD1], the protein stability index runs as follows: (treatment: DMSO) 2.89 ± 0.49; (treatment: MLN4924 1 uM, 8 h) 2.78 ± 0.37.
Regarding LRITSGVVVCQCGLSIPSHSSELT [RPAIN], the protein stability index is, setting by setting: (treatment: DMSO) 2.56 ± 0.65; (treatment: MLN4924 1 uM, 8 h) 2.48 ± 0.57.
For LRNKLRELCVKLMFLHPVDYGRKA [SMG5], in that order: 3.21 ± 0.36 and 3.03 ± 0.51.
In the same order, the values of LRYSVVEESEPGTLVGNVAQDLGL [PCDHGC5] are 3.94 ± 0.13 and 3.86 ± 0.26.
With LSKILAKLERLKQQNEDLRRMAES [FUT8], the protein stability index (treatment: DMSO) was 2.9 ± 0.22 and the protein stability index (treatment: MLN4924 1 uM, 8 h) came out at 3.12 ± 0.24.
In the same order, the values of LSPEVLNKQGHGCESDIWALGCVM [PLK2] are 2.09 ± 0.15 and 2.14 ± 0.29.
For LSSTLLSFSTAIGRTCITDLQLTV [MFSD9], in that order: 3.11 ± 0.17 and 3.18 ± 0.39.
In the same order, the values of LSSVECLDYTADEDGVWYSVAPMN [KLHL12] are 3.59 ± 0.19 and 3.74 ± 0.48.
On to LTCDSSTSSSDDDEEVSGSSKTIT [C18orf25], for which the protein stability index runs as follows: (treatment: DMSO) 5.4 ± 0.26; (treatment: MLN4924 1 uM, 8 h) 5.46 ± 0.21.
In the same order, the values of LTINPAKRITASEALKHPWICQRS [CAMK2D] are 2.57 ± 0.1 and 2.72 ± 0.25.
For LTIRESILINNGSRIKGWWVFHHY [TMEM120A], in that order: 3.1 ± 0.7 and 2.73 ± 0.92.
For LTKHEWTEALGCDPPLSQDERTHR [ZNF8], in that order: 4.6 ± 0.2 and 4.72 ± 0.17.
For the sequence LTLVFFVQITGQPNILFYASTVLK [SLC2A12], the protein stability index is, setting by setting: (treatment: DMSO) 3.19 ± 0.51; (treatment: MLN4924 1 uM, 8 h) 3.5 ± 0.59.
Take LTLYNPTGTALRFRVLCTAPAKYT [MOSPD3]: the protein stability index (treatment: DMSO) turned out to be 2.79 ± 0.65 and the protein stability index (treatment: MLN4924 1 uM, 8 h) amounted to 2.69 ± 0.48.
For LTVNTEAQQLLREFEEATGEAGWG [FOXJ1], in that order: 4.55 ± 0.14 and 4.62 ± 0.073.
In the same order, the values of LTWSELFVLNAAQCSMPLHVAPLL [NR2F2] are 2.98 ± 0.21 and 3.16 ± 0.32.
In the same order, the values of LVLNSQQSDTLEQREEHELVHVME [RAD54B] are 4.59 ± 0.24 and 4.36 ± 0.21.
With LVQRQMSVIEEDLEEFQLALKHYV [NECAB1], the protein stability index reads like this: (treatment: DMSO) 2.32 ± 0.36; (treatment: MLN4924 1 uM, 8 h) 2.6 ± 0.23.

(Values after the supplement of paper PMC10567573.)
